Test results reported in the domain aggregation screens of Martell et al. (2025).

Test: soluble fraction after stress (log2 fold change); higher = more stays soluble; pooled small domains, quantitative proteomics
Details: stress: pH 4
In short: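 How much of each domain stays soluble after acid stress, expressed as a fold change, is used to gauge aggregation propensity. Pooled custom libraries of small domains underwent pH 4 stress before high-throughput quantitative proteomics. A higher log2 value means more of the domain stayed soluble.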

“HMNNQILYERLRDLRERNHFTQAFVSSKLNIGRATYSNYERGKRTPSLDVIMDLASFYKVPFTYF” and “HMNNQMTFSKFLNEVDAGRVVEVEIQGNNIKGVLADGNRFNTFSPNYPNLVEKLSDKGVSITAAPK” are within 0.2 log units of each other in “soluble fraction (log2)” value: 0.113 for the first, 0.205 for the second.

Compared with “HMNPASVLDGLKITSFSPTRAIVAGPGGSRIVFDNEAVVLGGIEWDVHIQRNGIEFTSQGQTVLLLFDRS”, “HMNPDDEMLLTYLTKLLVDKQFIVNSNDIFEYILRRVDRTYDGIYDIVSKLDVLSLEKKRQLTIPLIKEI” is higher in “soluble fraction (log2)” value: -0.514 for the first, 0.103 for the second.

First: HMNPETIHNDYKAFIKFAFSGLSYYSKVWNQNREMITPGLLETLWQKYRHLSIGEIETILEKIIKEG
Second: HMNPGNTESFPVYQKRLGEIIQTLAGKKGQDINSPEVKELVGEYDFLTKQMFQLPDATSMVMEIATAYRN
The “soluble fraction (log2)” value of the first is lower: -1.24 for the first, -0.224 for the second.

First: HMNPKTELMVYLKKRDEWVASQILSDVLQVSTRTIRKFVKEINMDYQTENVILSSSKGYKLNQNLLSSL
Second: HMNPLPALLRYFRQKAGLTQQDVAAALSISRSGYANYEEGRNIPNIEQAIKLSELLNHDFLYAYTLSS
The “soluble fraction (log2)” value of the first is higher: -0.281 for the first, -0.749 for the second.

First: HMNPNYIKKLREKNQLTQEYLAAQIGVSRPTYAQIEQGQRGLTVTEAKKMADIFSLALDDFLAEKN
Second: HMNPSIALHDWLQSSEFKGSINLFAAALGMNPRTVEAWVYGRSTPSRRFWAKLYQITNLSRFRL
The “soluble fraction (log2)” value of the first is lower: -0.442 for the first, 0.22 for the second.

Compared with “HMNPYLWQRVRLLFSNVGVINNSATVDLVFSAPKGVLTEDLANNFSAALVKKGKEELGLDDIKITISVIPN”, “HMNQADNFNSLTKREKDVLLLVTQGESNKSIADKLVLSEVTVKSHLNSIFKKLNVTNRTQAVLVAMQMNLV” is higher in “soluble fraction (log2)” value: -2.21 for the first, -0.85 for the second.

Going from “HMNQAIIVPDVKGLPLEEATTFFENNDLRYTVIDSVYTKDVPPGAIYEMVPGAGSKVKEGRIIFVTLNAR” to “HMNQASLTYSEFIANVESKAITRVTISGDTISGILADGKPFQTIYPMADLELLPILRRSGVDINVKEVQ”, the “soluble fraction (log2)” value rises from -0.565 to 0.22.

Going from “HMNQEIELLLREPDFTSAARLAMAINERFTNSARAIDPTSVKVRMPEGLDQASVDFVARLEDIEMSPDT” to “HMNQEQQSAVMSALKATLPDLEAALEARQFKESKQLLKTAQNQFQQLDGRNRRGFQARIQLLAGQFRELS”, the “soluble fraction (log2)” value rises from -0.587 to -0.00484.

First: HMNQIDDADRKRVVDEVAGQFSSMSLTEMRSDREKLLSRIIPQVQTTLNRLGLQTIDVEGIAREVIARVG
Second: HMNQIFAPMPGLVLEVKLSEGDVVAEGESAIILEAMKMENIIKSPINGIVKKVHVKKGQTIEKNTLIISFK
The “soluble fraction (log2)” value of the first is higher: -0.288 for the first, -1.06 for the second.

Compared with “HMNQLSYTERRVLQVIEGGTTKTGEIEQALAAKMSRPTVHRALDALVGANRIHRLARGEYALGPAP”, “HMNQRQKQLLSILEQQGDWMKGKALATLLAVSDRTIRSDIEKINREVEGSILSHPHKGYLLSVENRQIAET” is lower in “soluble fraction (log2)” value: 0.321 for the first, 0.0959 for the second.

First: HMNQSKYQTIADELKSKILSGEYPENTTIPPELQLQKDYQVSRHTIRQAIALLANEGFLRKEKGSGTYVDV
Second: HMNQTTYTVLYSGMDPADTGKVLTALNEMGVDARTQGEDTVLVPADRADEIRLELAAQGYPTS
The “soluble fraction (log2)” value of the first is higher: 0.254 for the first, -0.0312 for the second.

“HMNQYIFVLNEKGARITSFVDNTIPKEELIALAKQDYPNAADYIYSADGDSMLDEFMRGKLYVNGQFVAA” and “HMNREIVVYITGAVDNPGLYRLPLDSRLDDVLKLAVLSTNADREVLNPAQKLKDGQKIVVPYIVE” are within 0.2 log units of each other in “soluble fraction (log2)” value: -0.475 for the first, -0.452 for the second.

Going from “HMNRGITVIVNNEEIKMKEKAQYVVVDIFDYIDFDLTVPKGSINITLNGENTPYTASIKDGDVIEVFW” to “HMNRIARRELMEQLFADNKITTQEQLQQLLRAEGVEVTQATISRDMRILNIVKVSDQNGNTYYKQMK”, the “soluble fraction (log2)” value rises from -1.56 to 0.0823.

Compared with “HMNRIEMTEPIIIKDLSRETGIPWVAIQKRLAQDGIMANINTTIEAEKAQLIAVDYGIELAVV”, “HMNRIGERIKRKRELRNLNLGELAEKVGISASALSQIEKSKSFPSVITLKSIAEQLRTTVGELIGEN” is higher in “soluble fraction (log2)” value: -0.54 for the first, 0.328 for the second.

“HMNRIKIYPTPGSKVLSIENINFSLIHDFKILDIFGREVKNFTVSSEKNTKMLVDTSKLSDGLYFIFFNTF” and “HMNRLEFLQGLKAELEGRVPHSIIQENLRYYDSYISDEAAKGQSEEDVVESLGGPRIIARTIVDAA” are within 0.2 log units of each other in “soluble fraction (log2)” value: -0.61 for the first, -0.52 for the second.

First: HMNRNEFMERLEYLLSDIPQEEKADAIAYYRDYLEEAGDDAGKAIQDFGSPERIAAMIRSELAG
Second: HMNRQTGTVKWFNDAKGFGFITPESGPDLFVHFRSIQGAGFKSLQEGQRVTFVAVQGQKGMQADQVQA
The “soluble fraction (log2)” value of the first is lower: -0.841 for the first, -0.429 for the second.

First: HMNRTKQIYNELLFRLDQGVYPPESKFPSESQLADEFSVSKVTMNKIVSMLASSGRLSRGVRGAGTFVSSP
Second: HMNRYPIQTEVHAFNDDIIKEAINFEMSRGGQIFFVNNRIPQLYELENTIHRLVPDARVVIGHGQMP
The “soluble fraction (log2)” value of the first is higher: 0.319 for the first, -0.722 for the second.

First: HMNSFKIYPNPSSREVVRFNQAQDVKVYDTLGKLILSAKNTSAIDTKSFNTGIYFIKTANGLTKKLIV
Second: HMNSGFEVFREVVNQGSFIGAANALGISAPAVSKQIKLLENRLGLLLLYRTTRNVTLTDIGKQLFDTLDNS
The “soluble fraction (log2)” value of the first is higher: -0.0877 for the first, -1.37 for the second.

Compared with “HMNSKKRQAILESLRSVTDHPTAEMIYNRLKPEYPDLSLGTVYRNLAMFLEEGQVISVGTVDGQERYDAR”, “HMNSKSFIFHIEDEEGIRLDVFLADNLPDVSRSYVQKLIDEEHVKVNGQSAKSRLKTVSGMEITVDVPAPK” is lower in “soluble fraction (log2)” value: 0.34 for the first, -0.543 for the second.

“HMNSLGYSDFVVDVQNERVASVVIEGLIINGERRDGTKFRTVLPTIGDQRLMDDLINHNVKVLARE” and “HMNSLTVPDITNRTLAEASQVLLDMGLTPIPDAVAKDGVGDDVVYAQSPPPNVGAREGDVVTITYNPA” are within 0.2 log units of each other in “soluble fraction (log2)” value: 0.226 for the first, 0.093 for the second.

First: HMNSNISYSEFLSQVEKGTINSVEITGNSIKGIYADGGEFITFSPGDPGLIDKLQRSDIEILATPPA
Second: HMNSPSKVIDISQLRKGMFVQLDLGWMSHPFAVGSFKVSTDEQIQTLRGLGLSEVRYIPEKSDPA
The “soluble fraction (log2)” value of the first is higher: -0.593 for the first, -0.896 for the second.

Compared with “HMNSQSGKGGVGYILETKYGLNLPPKMREAMGYAAKGVSDHLHKELHPDEIFDLFKKTFENVGQPYS”, “HMNSSLLGKRIKSLREDHDLTQKELSLMIGLTPKMISFYENNQRTPPLDILLKLAKIFEVSVDYLIGYA” is lower in “soluble fraction (log2)” value: 0.197 for the first, -0.0642 for the second.

Compared with “HMNSTRAPYLLDFEEDAAIREARRAGLVPRIARQPSGEPVGRVILQSHDYDYPMKRGDTILITISSG”, “HMNSTSGIAGVGYWINQYRKKKGMSPVDKKSPLVRRVYDWVQEQYDEGRITIISDAELTRQTELAMEA” is higher in “soluble fraction (log2)” value: -0.797 for the first, 0.0383 for the second.

Compared with “HMNSVAASLREISIKVSGTEDADKVSRLQELSQMPKLDASGIAEANTLLEQLRAKYGDLGLSVDTARGRIV”, “HMNSVSIAPEMLNWVIAHIQMNSLPKQIVEHLTAWISGQKEPTFNQIEKVSRATGIPLGYFFLEQPPKE” is lower in “soluble fraction (log2)” value: 0.0674 for the first, -1.02 for the second.

First: HMNSYKGELLVDDKNIRLDLYLFNQFNFFSRTKIKNYILKGNVLVNNNKTSPSYILKGSEKIYYDFSVS
Second: HMNTEVDKVLLRSGEAYFGEVLLRNDELVMMKTQDGARFQFPVSEIKSIEKVSVADALRHINS
The “soluble fraction (log2)” value of the first is lower: -0.251 for the first, 0.162 for the second.

Going from “HMNTGFPIILETSDAANLTVGAPIMYRGVEVGKIRNMELNSLGDRVLIHILIGHKYQHLVRQNSEFWFSS” to “HMNTKDRIKQLAAQRKITIAELERKLHIANGTIGKWDKQNPSIEPLKKLADYFGVTTDYLLGRT”, the “soluble fraction (log2)” value rises from -2.1 to -0.219.

Going from “HMNTKLKPLYLLDIFREMTDERHRMTVPELLEELQRRGITAERKGIYRDIDALIQYGADIKHTGTGYYLAR” to “HMNTKLSYSDLIEKIEAGQVEKVELDAGGSSAIVKLKNDNIEKRVNVPSIDNLMENLQDNMKTGNISVTE”, the “soluble fraction (log2)” value falls from 0.18 to -0.202.

Compared with “HMNTLLGLSNSFQDNKDLENANSISRRFISYRPRSEAELRIRLLKVFSHEIVLESVAQMYREGLLNDQRF”, “HMNTLTKEDIQKAIDVIPIDFKSVVILNLVEGFSYKETAEILEIPIGTVMSRLHRGRKILQKLLWEYSSSK” is higher in “soluble fraction (log2)” value: -1.65 for the first, -0.557 for the second.

“HMNTTTTKVVSVSSLNMRSGPSTSYNIIEVLTKDTQVEVISVEDGWAKIKYNSKTGYVSNQYLSDKK” and “HMNTVAKELATQATQAKKRAFLDAYAETGIIKRAAEIAGIERKSHYLWLEKDPEYVEAFKSAGEQ” are within 0.2 log units of each other in “soluble fraction (log2)” value: -0.0101 for the first, -0.0116 for the second.

Going from “HMNTVSVGNLGLSVRAVNALKQAGIDTYDKLQELSWEELLLIPKLGQVTAAEIYRFITSYKKG” to “HMNVAETITLGKRLFNHALTILGKKQRNISRKQLKNFLNDLGLKDSKDLYESIGTGDKNPILMAQLLLG”, the “soluble fraction (log2)” value rises from -0.491 to -0.0687.

Going from “HMNVAVGNSKLVGVAGERAYFVNGVGAAARTLSLQVGDALPTGEKVRRIERDGVTMTGASGDVRLSVLP” to “HMNVDALIGTKGIVVQPIRPFAVGQVKVNGQVWSAVGKTPETDIEQGREVKVHAIEGVKLVVTPT”, the “soluble fraction (log2)” value falls from 0.138 to -0.134.

Going from “HMNVDALVGMPARVTRAFVQGAGEVKLDNGETWTARLSAGVTDAEASVGQTVSVIAVRGAAVEVAPE” to “HMNVDSLIGKKARVLEDIDNLNAKGQVSIDGMEWTARSEDGSEIKKDALVEVVAIEGVKAIVKQ”, the “soluble fraction (log2)” value falls from 0.158 to -0.127.

Compared with “HMNVEQQNQARENIKRLMEEQGLSQPKLSEKAGIAFGTLSRILRGKQDLTIQTAEKIADALGLSVYDLAE”, “HMNVKVSVDDIARPGLMASGRVTFADGNRGMWYVDEMGRLGIDPEVEGYQPSEADIQAFQRELQSVMES” is lower in “soluble fraction (log2)” value: 0.247 for the first, -0.927 for the second.

First: HMNVNSQQINDLEKSIQKFFDKDIKNYLNQNLSNDRMISKNEIDKIILLYYGSDKEPTLDEIKSIFN
Second: HMNVNTHKTLILNSTFQPLSLATPQRALALLFSKKINVLKESDIKLRSVGQSVAIPKVAVLTYFVKA
The “soluble fraction (log2)” value of the first is lower: -1.19 for the first, 0.132 for the second.

Going from “HMNVPFGYTIKDGLLVEQPDEKAILDNILTWKKGQMTVAEIAKKTGMETWKIYGILNYWRNK” to “HMNVRAYKVSKESELTVEEKLEAVRGYGVADLLYVIREFEENPGKYEPEVIKLIVQQLTDKGIM”, the “soluble fraction (log2)” value falls from -0.438 to -0.94.

First: HMNVRRSRTHEKVTTYQGYDIFINKEPNQRGMFTSAPMRGDNEYSNLRGEGKSKQDAVNMTKEKIDEIAA
Second: HMNVSVSITKELQVYINDERISSSALESTLKSKLAGIENPTIILRAEEGVPIEKAVNVMDIANRNRYKIVL
The “soluble fraction (log2)” value of the first is higher: 0.229 for the first, -0.969 for the second.

Going from “HMNVYAGTMINVVGLQVEDAASRLRGLFYSVKIVEEESQEPDGKVLRQNIAEGTKDLEAWTLVELTVSKYV” to “HMNVYEVKFGDTLDEIIKTYLFDIPVKKSILRQAVILANPHAFRRNNPHWMYSDRQLKLPELQDIRRAIF”, the “soluble fraction (log2)” value falls from -0.448 to -0.74.

In the case of “HMNYGDVIEGQIMHVDRDELLVDIGSKSEGIIPAREFSTLTDEERAALSVGDHVLVFVVQAENQEGQAV”, the “soluble fraction (log2)” value is reported as 0.0111.
